Results from PMC7840605, “3-Hydroxyphthalic Anhydride-Modified Chicken Ovalbumin as a Potential Candidate Inhibits SARS-CoV-2 Infection by Disrupting the Interaction of Spike Protein With Host ACE2 Receptor” (Frontiers in Pharmacology, 2020).

Biological target: SARS-CoV-2 spike (S) protein (SARS-CoV-2, UniProt P0DTC2)
Assay: cell-based or functional assay

B1: chicken ovalbumin (natural protein)
chain: MGSIGAASMEFCFDVFKELKVHHANENIFYCPIAIMSALAMVYLGAKDSTRTQINKVVRFDKLPGFGDSIEAQCGTSVNVHSSLRDILNQITKPNDVYSFSLASRLYAEERYPILPEYLQCVKELYRGGLEPINFQTAADQARELINSWVESQTNGIIRNVLQPSSVDSQTAMVLVNAIVFKGLWEKAFKDEDTQAMPFRVTEQESKPVQMMYQIGLFRVASMASEKMKILELPFASGTMSMLVLLPDEVSGLEQLESIINFEKLTEWTSSNVMEERKIKVYLPRMKMEEKYNLTSVLMAMGITDVFSSSANLSGISSAESLKISQAVHAAHAEINEAGREVVGSAEAGVDAASVSEEFRADHPFLFCIKHIATNAVLFFGRCVSP
IC50 against live SARS-CoV-2 in Vero E6 cells (CPE assay): > 50 µM
